According to patent US6077686, “Shc proteins” (Mount Sinai Hospital Corporation, dated 2000):

How the values were obtained:
[1] = target: EGFR in living cells (293T cells stimulated with EGF; NIH/3T3 cells transformed by overexpression of the EGFR)
[2] = target: autophosphorylated EGF-receptor (from lysates of EGF-stimulated A431 cells) (human, UniProt P00533, autophosphorylated on tyrosine (sites not given)); assay: binding of GST-PTB to the activated EGFR, normalized to wild type

Molecule | EGF-induced MAPK activity (Gal4-Elk-1 / Gal4-Luc luciferase in 293T cells) [1] [%] | Relative Binding [2]
GST fusion protein of the ShcC PTB domain (wild type) (other) LGPGVTYVVKYLGCIEVLRSMRSLDFSTRTQVTREAISRVCERVPGAKGALKKRKPPSKMLSSILGKSNLQFAGMSISLTISTASLNLRTPDSKQIIANHHMRSISFASGGDPDTTDYVAYVAKDPVNRRACHILECCDGLAQDVIGSIGQAFELRFKQYL | – | 1
GST-ShcC PTB domain mutant G30R/H128Q (other) LRPGVTYVVKYLGCIEVLRSMRSLDFSTRTQVTREAISRVCERVPGAKGALKKRKPPSKMLSSILGKSNLQFAGMSISLTISTASLNLRTPDSKQIIANQHMRSISFASGGDPDTTDYVAYVAKDPVNRRACHILECCDGLAQDVIGSIGQAFELRFKQYL | – | 1
GST-ShcC PTB domain mutant G32R (other) LGPRVTYVVKYLGCIEVLRSMRSLDFSTRTQVTREAISRVCERVPGAKGALKKRKPPSKMLSSILGKSNLQFAGMSISLTISTASLNLRTPDSKQIIANHHMRSISFASGGDPDTTDYVAYVAKDPVNRRACHILECCDGLAQDVIGSIGQAFELRFKQYL | – | 0.93
GST-ShcC PTB domain mutant A136T/C166R (other) LGPGVTYVVKYLGCIEVLRSMRSLDFSTRTQVTREAISRVCERVPGAKGALKKRKPPSKMLSSILGKSNLQFAGMSISLTISTASLNLRTPDSKQIIANHHMRSISFTSGGDPDTTDYVAYVAKDPVNRRACHILECRDGLAQDVIGSIGQAFELRFKQYL | – | 0.12
GST-ShcC PTB domain mutant E63G (other) LGPGVTYVVKYLGCIEVLRSMRSLDFSTRTQVTRGAISRVCERVPGAKGALKKRKPPSKMLSSILGKSNLQFAGMSISLTISTASLNLRTPDSKQIIANHHMRSISFASGGDPDTTDYVAYVAKDPVNRRACHILECCDGLAQDVIGSIGQAFELRFKQYL | – | 0.087
GST-ShcC PTB domain mutant G32R/A136T/C166R (other) LGPRVTYVVKYLGCIEVLRSMRSLDFSTRTQVTREAISRVCERVPGAKGALKKRKPPSKMLSSILGKSNLQFAGMSISLTISTASLNLRTPDSKQIIANHHMRSISFTSGGDPDTTDYVAYVAKDPVNRRACHILECRDGLAQDVIGSIGQAFELRFKQYL | – | 0.14
GST-ShcC PTB domain mutant A136T (other) LGPGVTYVVKYLGCIEVLRSMRSLDFSTRTQVTREAISRVCERVPGAKGALKKRKPPSKMLSSILGKSNLQFAGMSISLTISTASLNLRTPDSKQIIANHHMRSISFTSGGDPDTTDYVAYVAKDPVNRRACHILECCDGLAQDVIGSIGQAFELRFKQYL | – | 0.16

Continued, values first:

EGF-induced MAPK activity (Gal4-Elk-1 / Gal4-Luc luciferase in 293T cells) [1] [%] | Relative Binding [2] | Molecule
50 | – | isolated ShcC SH2 domain expressed in cells (HA epitope-tagged SH2 domain)
– | 0.073 | GST-ShcC PTB domain mutant G139E/D140N (other) LGPGVTYVVKYLGCIEVLRSMRSLDFSTRTQVTREAISRVCERVPGAKGALKKRKPPSKMLSSILGKSNLQFAGMSISLTISTASLNLRTPDSKQIIANHHMRSISFASGENPDTTDYVAYVAKDPVNRRACHILECCDGLAQDVIGSIGQAFELRFKQYL
– | 0.81 | GST-ShcC PTB domain mutant T118S (other) LGPGVTYVVKYLGCIEVLRSMRSLDFSTRTQVTREAISRVCERVPGAKGALKKRKPPSKMLSSILGKSNLQFAGMSISLTISTASLNLRSPDSKQIIANHHMRSISFASGGDPDTTDYVAYVAKDPVNRRACHILECCDGLAQDVIGSIGQAFELRFKQYL
– | 1.2 | GST-ShcC PTB domain mutant T58A (other) LGPGVTYVVKYLGCIEVLRSMRSLDFSTRAQVTREAISRVCERVPGAKGALKKRKPPSKMLSSILGKSNLQFAGMSISLTISTASLNLRTPDSKQIIANHHMRSISFASGGDPDTTDYVAYVAKDPVNRRACHILECCDGLAQDVIGSIGQAFELRFKQYL
– | 1 | GST-ShcC PTB domain mutant V36M (other) LGPGVTYMVKYLGCIEVLRSMRSLDFSTRTQVTREAISRVCERVPGAKGALKKRKPPSKMLSSILGKSNLQFAGMSISLTISTASLNLRTPDSKQIIANHHMRSISFASGGDPDTTDYVAYVAKDPVNRRACHILECCDGLAQDVIGSIGQAFELRFKQYL
– | 1.2 | GST-ShcC PTB domain mutant S86C (other) LGPGVTYVVKYLGCIEVLRSMRSLDFSTRTQVTREAISRVCERVPGAKGALKKRKPPCKMLSSILGKSNLQFAGMSISLTISTASLNLRTPDSKQIIANHHMRSISFASGGDPDTTDYVAYVAKDPVNRRACHILECCDGLAQDVIGSIGQAFELRFKQYL
– | 1 | GST-ShcC PTB domain mutant M130I/S132V (other) LGPGVTYVVKYLGCIEVLRSMRSLDFSTRTQVTREAISRVCERVPGAKGALKKRKPPSKMLSSILGKSNLQFAGMSISLTISTASLNLRTPDSKQIIANHHIRVISFASGGDPDTTDYVAYVAKDPVNRRACHILECCDGLAQDVIGSIGQAFELRFKQYL
– | 1.2 | GST-ShcC PTB domain mutant T111I (other) LGPGVTYVVKYLGCIEVLRSMRSLDFSTRTQVTREAISRVCERVPGAKGALKKRKPPSKMLSSILGKSNLQFAGMSISLTISIASLNLRTPDSKQIIANHHMRSISFASGGDPDTTDYVAYVAKDPVNRRACHILECCDGLAQDVIGSIGQAFELRFKQYL
